Experimental data: US20170096486A1, “AGENTS INHIBITING GRANULIN FOR TREATMENT OF CANCER” (priority 2014, published 2017)

Test system: MCF7 cells
Test: Proliferation of MCF7 cells after peptide treatment
Assay type: cell-based
Conditions: MCF7 cells (FIG. 5)

B1: HB-EGF: peptide mimetic HB-EGF (R&D Systems 259-HE-050) (protein, UniProt Q99075 63-148, looked up)
Heparin-binding EGF-like …: DLQEADLDLLRVTLSSKPQALATPNKEEHGKRKKKGKGLGKKRDPCLRKYKDFCIHGECKYVKELRAPSCICHPGYHGERCHGLSL
For B1, the “proliferation after peptide treatment” value was “does not affect proliferation”.
